Target: T1, CPY*-CPY fusion protein (S. cerevisiae) (UniProt P00729)
T1 sequence (P00729 whole entry, looked up): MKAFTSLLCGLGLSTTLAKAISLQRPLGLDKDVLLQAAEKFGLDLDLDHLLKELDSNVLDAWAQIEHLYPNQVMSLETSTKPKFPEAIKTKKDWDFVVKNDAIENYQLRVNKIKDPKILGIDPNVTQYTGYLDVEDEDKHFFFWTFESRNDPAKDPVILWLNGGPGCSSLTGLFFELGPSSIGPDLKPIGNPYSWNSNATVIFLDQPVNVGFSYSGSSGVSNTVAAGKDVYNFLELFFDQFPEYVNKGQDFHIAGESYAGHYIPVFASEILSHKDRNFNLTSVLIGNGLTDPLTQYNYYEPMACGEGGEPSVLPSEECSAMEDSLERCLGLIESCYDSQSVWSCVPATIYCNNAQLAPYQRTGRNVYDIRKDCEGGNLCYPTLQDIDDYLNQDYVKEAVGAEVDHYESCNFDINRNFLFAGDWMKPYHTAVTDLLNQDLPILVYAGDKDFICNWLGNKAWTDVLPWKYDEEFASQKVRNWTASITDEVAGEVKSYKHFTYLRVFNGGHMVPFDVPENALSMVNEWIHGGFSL
Assay: co-IP

B1: Hrd1p (enzyme)
chain: MVPENRRKQLAIFVVVTYLLTFYCVYSATKTSVSFLQVTLKLNEGFNLMVLSIFILLNSTLLWQLLTKLLFGELRLIEHEHIFERLPFTIINTLFMSSLFHERYFFTVAFFGLLLLYLKVFHWILKDRLEALLQSINDSTTMKTLIFSRFSFNLVLLAVVDYQIITRCISSIYTNQKSDIESTSLYLIQVMEFTMLLIDLLNLFLQTCLNFWEFYRSQQSLSNENNHIVHGDPTDENTVESDQSQPVLNDDDDDDDDDRQFTGLEGKFMYEKAIDVFTRFLKTALHLSMLIPFRMPMMLLKDVVWDILALYQSGTSLWKIWRNNKQLDDTLVTVTVEQLQNSANDDNICIICMDELIHSPNQQTWKNKNKKPKRLPCGHILHLSCLKNWMERSQTCPICRLPVFDEKGNVVQTTFTSNSDITTQTTVTDSTGIATDQQGFANEVDLLPTRTTSPDIRIVPTQNIDTLAMRTRSTSTPSPTWYTFPLHKTGDNSVGSSRSAYEFLITNSDEKENGIPVKLTIENHEVNSLHGDGGEQIAKKIVIPDKFIQHI
- inhibition of the co-precipitation in yos9Δ cells against wild-type cells: 70%
